Data from the DeepSol protein solubility set.

Assay: soluble on expression in E. coli; label from the status in PepcDB or PDB records
For “GPGSMSQQNAVEALLARLQMGDTIPAFQSMGVDRIVSLRKMSEEALSQAVPDPEQRQALMDAIESRGHLQSRRAGPPAGQPHPPRSADADFARGGNDEGRGGYAPRGDRGGRIARGGRGGGRGAGAPNGDDAARVCRHVFTPEGCKYGDKCRYSHDENDRRRAQEVPTGSGMAQRSLERPPPNFKFSIEVEIPTERIKYLLGSQGNNMKFINETCGTYNERFDHVDEKEETFTIRILGGSEEAINKAKEMLLLSAGVKREEEKKDRFQYAVNELDANTHAARLFAACNTKNKDTTRHLSDSIMRNIVSSFHFVRPQEVRHFYMYTSSSDKDKLEMVSKIVSQLKGVQAILFCDQKRVEEMCKGSQRIARHFNGVEPQFVYRQLSKEDRMMALERFKKGVENENGVRQRLLVTNEDYAKLARKTIIPYVNLVINFSVPRAEEYYVLQSQVAGRQGTIGASFLCVSNYEEALFRELEKNIQFERFEDEEHFRTTAVELSYDTTAQPLTPEDADPPADWREHLNDKKPRQNFGKRR”, the “soluble on expression in E. coli” value was “soluble”.
For “MGSDKIHHHHHHMTEAAEAGNRGFEDYYVNIGFTPDRLVSMLSLTGLSSVHSVVAFYDDRPAGFILNGIRMIGGKQVAWNGGTAVVPELRRQGIGQKLMAATVECYEEQGVELATLEAFRINERAIALYETFGYHIVDQLCFLQHIGALETSFRSKSVGENDYRVARGTAHDVRLLSFYQHTAPWRTQWFALRGGQSILVKDALNHTIGYALYERVFDGEGSLASIVLYQCEAAPGRDDADEIVREALDALFAPHDEPCKRTTFNMPRANERVVRILQEAGFTDAHTADGIPFEQVYMVRKGKDDR”, the “soluble on expression in E. coli” value was “not soluble”.
For “MASRLLRGVGALAAQALRAHGPRGAAVTRSMASGGGVPTDEEQATGLEREIMIAAQKGLDPYNMLPPKAASGTKEDPNLVPSISNKRIVGCICEEDNCTVIWFWLHKGESQRCPNCGTHYKLVPHQMAH”, the “soluble on expression in E. coli” value was “soluble”.
For “MQFNPGFSSLAALLADPGRAQMIWALMDGSARPASELALLAGVSPSSASGHLGRLVEGGVLSLEARGRNRFYRLAGPEVGQAVEALASASLALQPQRRSLPPSHGTPSALREARTCYDHLAGELAVGVFARMLDAGWIEQEGRTLRLSATGEAGLAGLGIDLAEVRRRRRQFACACPDWSERKPHLGGALGAALLEACLRQGWLRPQDGSRALQVSSKGRAGLRGLAERTAG”, the “soluble on expression in E. coli” value was “not soluble”.
With “MSLSLREEALHLHKVNQGKLESKSKVEVRNAKDLSLAYSPGVAEPCKDIHEDINKVYDYTMKGNMVAVVTDGTAVLGLGNIGPEAALPVMEGKAVLFKSFAGVDAFPIALNTNDVDKIVETVKLLEPTFGGVNLEDIAAPNCFIIEERLKKETNIPVFHDDQHGTAIVTVAGLVNALKLSGKSMSSIKVVANGAGAAGIAIIKLLHHYGVRDIVMCDSKGAIYEGRPNGMNDVKNEVAKFTNQDRKDGSLKDVIVDADVFIGVSVAGALTKEMVQSMAKDPIIFAMANPNPEIMPEDAREAGASVVGTGRSDFPNQVNNVLAFPGIFRGALDVRATHINEEMKIAAVEAIASLVSEDELSADYVIPAPFDKRVAPAVAKAVAKAAMETGVARITVDPEEVAEKTRKLTIIGEEGHHHHHH” the “soluble on expression in E. coli” value was “soluble”.
With “MDAQGLRLITALKLCILATKKDGTPLYSDREQYIFSELYGLEGNEIQNMISLGDKLGLSRERIRQLKVKVFKKFGILRKRNIPAIIDIDNLLTNNHQINLDEVHNFACYLKKFQESHLSEYPIETLFDLAQLYFKQDYSIIKTWKREIKETSTIFPKKQNSQLTDITNKIIWFDHVKSWTLEEIHQITPHRNYDPNKKYLESEAGEFYSNKLQRNVFYESMLEKKFYKRLEKSHEVIYYVEQGITITYDRGKYTPDAIVFLDDGKGFVVEIKPLTEMANQSVQKKFKALLDFCEETGLGATLTDGRTDINHIFETIPNLAFEESILQSLKEFKKLTYGKVNELKNKYQVTTIHLLQCIIKNNLSYNSMPTFIWKTKKPIICDLLLSPENKMLLKGSTDIINNDKTLEHHHHHH” the “soluble on expression in E. coli” value was “not soluble”.
For “MSTPHINVIGAGLAGSEAAWQIAERGIAVHLYEMRPVKQTPAHHTDKFAELVCSNSLRGNSLTNAVGVLKEEMRRLNSVIIRSADRCSVPAGGALAVDRHEFAQAVTEAVREHPNVTVFTEEIQKIPDGPTVIATGPLTSKALSEQLKQLTGEEYLYFYDAAAPIIETDSINMDKVYLKSRYDKGEAAYLNCPMTEEEFDRFYEALISAETVPLKEFEKEVFFEGCMPVEVMAKRGKKTLLFGPMKPVGLEDPKTGKRPYAVVQLRRDNQSGTLYNIVGFQTHLKWGPQKEVIQLIPGLENAEIVRYGVMHRNTFINSPNLLKPTYQYKKRKDLFFAGQITGVEGYVESAAAGLVAGLNAARLVQSKELVVFPDTTMLGSMANYITTANSKNFQPMNANFGLLPPLDTRIKDKKTRYETLAGRALESIQNFVKKMLEHHHHHH”, the “soluble on expression in E. coli” value was “soluble”.
For “MGSDKIHHHHHHMANVVLFGLQDYAELAHYYLEHDSPHQVAAFCVDRQYIPDSGTFKNLPVVAFEDVAHTHPPGDFSFFAPMSPKHMNRDRERIFNAIKAHGYTLISYVSSRATKFDNEIGENCFILEDNTLQPFTRIGDNVVLWSGNHIGHHGRIGDHVTMTSHVVMSGHCDIGAYSFVGVNATLRDGVTIGEGTFVAMASAITKNTEPWSVYRGNPAVKLTMPSTEVKF”, the “soluble on expression in E. coli” value was “not soluble”.
With “MGSDKIHHHHHHMDNPVEEHSPTAQTPVLNLDNVPVGVPLEWPIVDADGTLLFATGTILATTDERNFLFGHFHPQRGDLLDAATQPAPESDAHADPGSPLTLKDMHLEIGALIGVRPQVGSGAPMHPCRIIGFAPNHALFVTPPMHDGRMLPMGLGENIEIVAIASHAVFRFVCTIEAICRSPFDYVVLSKPGVIRRLRERKSIRVRTHLAVRFGIGQSGESYEGLGLAKGVSALGMSLAASWTLGAVGDRLRLAFRLKSKDLDTEIETTAVIRNVQQGSGPGTPSTHGLELDQLDATQQMAMKVFVFDRQDDVVYWSSGLK” the “soluble on expression in E. coli” value was “not soluble”.
For “MRGKVYLVGAGFGGPEHLTLKALRVLEVAEVVLHDRLVHPGVLALAKGELVPVGKEGYGGKTPQEAITARLIALAREGRVVARLKGGDPMVFGRGGEEALALRRAGIPFEVVPGVTSAVGALSALGLPLTHRGLARSFAVATGHDPALPLPRADTLVLLMPLHTLGGLKERLLERFPPETPLALLARVGWPGEAVRLGRVEDLPGLGEGLPSPALLVVGKVVGLYGELLPKDHGL”, the “soluble on expression in E. coli” value was “soluble”.
In the case of “MGSDKIHHHHHHPEIIVPKPHQLKWHEAEMGAVFHYDLHVFDGIRYGQGNNRISPIEDYNIFNPTQLDTDQWIQAAKAAGCKFAVLTATHETGFGLWQSDVNPYCLKAVKWRDGKGDIVRDFVNSCRKYGIQPGIYVGIRWNSLLGIHNFKVAGDGEFAANRQAWYKRFCEKMVEELCTRYGDLYMIWFDGGADDPRGDGPDVEPIVNKYQPDCLFYHNIDRADFRWGGSETGTVGYPCWSTFPAPCSHHKRIESQKDQIALLKQGDPEGKYWVPAMADSPLRGANGRHEWFWEPDDENNIYPLTTLMDMYEKSVGRNATLIIGLTPDPDGLLPAGDEQRLKEWGEEINRRFGTPLAETQGRKQRLTLNLNEKQPVNYCIIQEDIAKGERIRQYKIEAKVNGKWQTVCSGESVGHKRIAHFEPVETTALRLTVTQSVAVPEIRHFSAYNVTLK”, the “soluble on expression in E. coli” value was “not soluble”.
With “MGSDKIHHHHHHMSLEATDSKAMVLLMGVRRCGKSSICKVVFHNMQPLDTLYLESTSNPSLEHFSTLIDLAVMELPGQLNYFEPSYDSERLFKSVGALVYVIDSQDEYINAITNLAMIIEYAYKVNPSINIEVLIHKVDGLSEDFKVDAQRDIMQRTGEELLELGLDGVQVSFYLTSIFDHSIYEAFSRIVQKLIPELSFLENMLDNLIQHSKIEKAFLFDVNSKIYVSTDSNPVDIQMYEVCSEFIDVTIDLFDLYKAPVLRNSQKSSDKDNVINPRNELQNVSQLANGVIIYLRQMIRGLALVAIIRPNGTDMESCLTVADYNIDIFKKGLEDIWANARASQAKNSIEDDV” the “soluble on expression in E. coli” value was “not soluble”.
For “DTPEPPLHNFYCSKLLDLVFLLDGSSMLSEAEFEVLKAFVVGMMERLHISQKRIRVAVVEYHDGSRAYLELKARKRPSELRRITSQIKYTGSQVASTSEVLKYTLFQIFGKIDRPEASHITLLLTASQEPPRMARNLVRYVQGLKKKKVIVIPVGIGPHASLKQIRLIEKQAPENKAFLLSGVDELEQRRDEIVSYLCDLAPEAPAPT”, the “soluble on expression in E. coli” value was “soluble”.
For “LALLYEVTCLNKPGLVDPVDAGAHQDMDVFTFLESSVVLTPYFETFVQAGTELRHLPIEATFRTIRQVGLEAERAMFEATEGINTHKGAIFSLGIFLAVCGRLMIWETPCTLQLFQQTLQTMTQDLLADFENLATNELEKLTWGERLFVQHGLTGIRGEAQQGYPAVFEQGVPYYQKHQGTQQQKLIDTLLYLSLYVEDTNLIKRSQNVQIFEVYQPLIQEYFALGGTQTLRGTLCLERLNHLFKEKNWSIGGSADALILVV”, the “soluble on expression in E. coli” value was “not soluble”.
In the case of “GSPGIPGSTRMAYQHCPFDTLLILDFETTSDAANQDYPCEVIQFAIVAYDVPNDKIREDISFNKYVKPVLNRTLTKNCVDFTGIPQRSIDTADTFDVVYEQFQQWLITLGLEEGKFAFVCDSRQDLWRIAQYQMKLSNIQMPAFFRQYINLYKIFTNEMDRMGPKELSATTNIGKMNEYYDLPTIGRAHDAMDDCLNIATILQRMINMGAKVTVNELLTCCASWRRQPLVYNKEWRSSFMDAGKIFERVLPLVVTTIRAGDFRLEMYGVCRYCRKGMDVCGTSHQQTPHDLYKNEEDPIHFAKIAGYY”, the “soluble on expression in E. coli” value was “soluble”.
With “MGSDKIHHHHHHMWFAVLSSNEVRRKPVGVRRLGRDLVFWRDSLGKVYALEDFCVHRRARLSAGKVINDRIQCPFHGFEYDGNGRVRLIPALGKNYKVPDRFRVNSYPVYEKNNIIWLWSGEGEPEKEPKFFDDIDEDFAYAEFRELWNVPFPRAVENQLDVMHLPFVHRTTIGRGNRTLVHGPVVKWIDEDSFIFYVFNEVDRGQRVKRPEELSGEESRVYLEFIFPNLWQNHISEGTRVVAFFVPVDRQKTMIYLRFYVKMTGLKPVDSIIARLSMPLNRIILHQDRRVVETQERDIRKDVLVQGDLPIMEFRKRLYKEKKLIDFLFGGGQ” the “soluble on expression in E. coli” value was “not soluble”.
In the case of “MGGGHFAASNALKTAFLQKDPQAKVEIVDTLKIISPILDKLAVGTYLKAIKTVPFIYGLVYDSTDKDPPTRFSKAIYEKFYFAFYKLYNIISELNPDVIIGTHPSPIDMVSQLKKRGNINVPIISIVTDFTIHPYWINEYADYIIVHHENLVYEAVKKGAPGKKVIPLGIPLEHHHHHH”, the “soluble on expression in E. coli” value was “not soluble”.
With “MGSDKIHHHHHHMQIDSSILGALRCFEAAGRLLSFTKAAESLNLTQSAVSQQIRHLEDRLGYVLFVRQPRSLKLTPQGEVLFETTTRALHDIQQTIQRLGMPNAPLQVNCLPSFALQWLMPRLTDFHREQPDVSVRLKAEFQALDRQSMDTEDIDVAVRYDPVRYSRLHADVLLDEYLIPVATPEYLAEHRELAEGTSLDGVVLLHDASPWVGAAEFVEWRTWLEAFHPTWMAHLEGPQFNLSSLAISAALNHQGVAMGRTALVYDEIRSGRLVNVFRQHVRAPARYMLLSRNPDDRRVTIFSAWLKAECARFDAMRMETLSRDR” the “soluble on expression in E. coli” value was “not soluble”.
For “MNFVQPIRDPEQIQQLKDYFKEKSLRNYILFIMGINTGLRISDILKLKVGDVKGSHISMREEKTGKQKRIQITAALKRELKWFIEEREDNEYLLQSRQGRNRPIGRSMAYKILSGAAADFGLDEIGTHTLRKTYGYHMYMQTKNIALLMEIFNHSSEKVTLRYIGVNQDAMDKAMTRFKI”, the “soluble on expression in E. coli” value was “not soluble”.
For “MKFETINQESIAKLMEIFYEKVRKDKDLGPIFNNAIGTSDEEWKEHKAKIGNFWAGMLLGEGDYNGQPLKKHLDLPPFPQEFFEIWLKLFEESLNIVYNEEMKNVILQRAQMIASHFQNMLYKYGGH”, the “soluble on expression in E. coli” value was “soluble”.
With “MAHSAAAVPLGALEQGCPIRVEHDRRRRQFTVRLNGCHDRAVLLYEYVGKRIVDLQHTEVPDAYSGRGIAKHLAKAALDFVVEEDLKAHLTCWYIQKYVKENPLPQYLERLQP” the “soluble on expression in E. coli” value was “not soluble”.
